Results reported in paper PMC9519379 (Cell Reports Medicine, 2022).
“And” between values parts separate entries of the source, which are not always exact repeats. Equal entries are not always repeated.

Biological target: the molecule itself

B1: H84T-banana lectin (H84T-BanLec) (designed binder)
chain: MNGAIKVGAWGGNGGSAFDMGPAYRIISVKIFSGDVVDAVDVTFTYYGKTETRHFGGSGGTPHEIVLQEGEYLVGMKGEFGNYTGVVVVGKLGFSTNKKSYGPFGNTGGTPFSLPIAAGKISGFFGRGGDFIDAIGVYLEP
- stoichiometry N: 2 and 4
